Measurements taken from publication PMC10580950.

Columns and labels:
[1] = tested on: OxyR C212D (mimic of overoxidized OxyR) (Streptomyces gilvosporeus F607); assay: MST; conditions: overoxidized OxyR (C212D mimic per Results); EMSA: 20 mM Tris pH 7.5, 60 mM KCl, 2 mM EDTA, 0.5 mM DTT, 4% Ficoll, 1 ug poly(dI-dC), 20 uL, 15-25 C, 30 min; MST: 50 mM HEPES pH 7.4, 0.05% Tween 20, room …
[2] = tested on: OxyR (Streptomyces gilvosporeus F607); assay: MST; conditions: EMSA: 20 mM Tris pH 7.5, 60 mM KCl, 2 mM EDTA, 0.5 mM DTT, 4% Ficoll, 1 ug poly(dI-dC), 20 uL, 15-25 C, 30 min, MST: 50 mM HEPES pH 7.4, 0.05% Tween 20, room …

**Q.** With psgnM (redox EMSA and MST) as the substance, how does the Kd [1] read?
**A.** 324 nM

**Q.** What about the Kd ([2]; oxidized OxyR (H2O2)) of the same substance?
**A.** 45.9 nM

**Q.** What about the Kd ([2]; reduced OxyR (DTT)) of the same substance?
**A.** 135 nM
